The record followed here is the nanobody polyreactivity screen of Harvey et al. (2022).

The data set is described as follows: yeast display, Sf9 membrane polyspecificity reagent, FACS + sequencing; frameworks hold sequencing errors. The method, boiled down: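 In a synthetic yeast display library (Saccharomyces cerevisiae BJ5465), nanobody expression was induced with galactose for 36–48 hours. FACS gates were set low and high (top ~1%) using anti-HA fluorescence for expression and streptavidin fluorescence for binding of the Sf9 membrane reagent. Each polyreactivity label is drawn from the gate of origin.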
As to “LQLVESGGGLVQAGGSLRLTSAASGSTFHRYAMGWYRQSPGKERELVAAISSRGGSTYYADSVKGRFTISRDNAKYTVYLQMNSLKPEDTAVYYCAVYGGRSGVPFDSMDYWGQGTQVTVTS”, the “polyreactivity (PSR sort gate)” value is reported as “high polyreactivity”. In the case of “LVHLQESGGGLVQAGGSLRLSCAASGTISPAGYMGWYRPAPGKERELVASINVGGSTNYADSVKGRFTISRDNAKNTVYLQLNCLKPEVNAVYYCAVWGRYRLQLSYWGQGTQVTVSS”, the “polyreactivity (PSR sort gate)” value is reported as “low polyreactivity”. The entry for “LVLLVESGGGLVQAGGSLRLSCAASGFSFACYGMGWYRQAPGNDRELVAALSWSGGRTYYADSVTGRFTISRDNAKNTVYLQMNSLKPEDTAVDYCYAYWNPASKYDFWGQGTQVTVTS” is “high polyreactivity”; for “LVQAGGSLRLSCAASVNTSGKNAMGWYRQAPGKERELVAAISSAGSTNYADSVKGRFTISRDNAKNTVYLQMNSLKPEDTAVYYCNAVRRLATVKTYRFNYWGQGTQVTVSS” it is “low polyreactivity”. The entry for “LVQLQDSGDGLVQAGGSLRLSCAASGNIFDADIKGWYRQAPGKERELVASIGIGGTTYYADSVKGRFSISRDNEKNTVYLQMNSLKPEDTAVYYCAARYLYYAYSYWGQGTQVTVSS” is “low polyreactivity”; for “LVQLQESGGGLVQAGGSLRLSCAASGTISPGGNMGWYRQAPGKERELLASINVGGSTNYADSVKGRFTISRDNAINTVFLQMNSLKPDDNAVFYCAVWGRNRLQLSYWGQGTQVTVSS” it is “low polyreactivity”; for “LVQLVESGGGLVQAGGSLRLSCAASGIIFRFYDMGWYRQAPGKERELVAAISWDGTSTYYADSVKGRFTISRDNAKNTVSLQMNSQKPEDTAVYYCAADWVGSPWWYLWYGYWGQGTQVTVSS” it is “high polyreactivity”. The entry for “LVQLVESGGRLVQAGGSLRLTCAATGSIFDGNAKGWYRQAPGKDRELVADISRGGSTYYADSVKGRFTISSDNAKNTVYFQLNSLKPEDTAVYDCTVEFFFWPYEYGYWGQGTQVTVSS” is “low polyreactivity”; for “LVQLVESGVGLVHAGRSLRLSCAASGSIFPYYTMGWYRPAPGKERELVAAISGSGGSTYYADSVKGRFTISRDNAKNTVYLQMNSLKPEYTAVYYCAAYRRTWFDYWGQGTQVTVSS” it is “high polyreactivity”. Take “LVQQVESGGGLVQAVGTLRISCAASGQILYSYAMGWYRQAPGKERELVAAITGGVSTNYADSVKGRFTISRDNAKNTVYLQMNSLKPEDTAVYYCNVELWEYSYIDEYWGQGTQLTVSS”: the “polyreactivity (PSR sort gate)” value is “low polyreactivity”.

For the sequence “PDQLVESGGGLVQAGGSLRLSCAASGLNFYDNMGWYIQATGKERELVSAISSSGGSTSYADSVKGRFTISRDNAKNTVYLQMNSLKPEDTAVYYCAADSSPAYLGFVGFDYWGHGTQVTVSS”, the “polyreactivity (PSR sort gate)” value is “low polyreactivity”. Take “PLQLVESGGGLVQAGGSLRLSCAASGRTFRATTMGWYRQAPGKERELVAAISHSGGSTYYADSVKGRFTISRDNAKNTVYLQMYSLKPEDTAVYYCATDGGSYSWASPRVDYWGQGTQVTVSS”: the “polyreactivity (PSR sort gate)” value is recorded as “low polyreactivity”. As to “PVQLVDSGGGLVQAGGSLRLSCAASGSIFYRNALGWYRQAPGKERELVAAISGRGGSTNYADSVKGRFTISRDNAKNTVYLQMNSLKPEDTAVYYCNRYGVANILVRGGYWGQGTQVTVSA”, the “polyreactivity (PSR sort gate)” value is “high polyreactivity”.

For the sequence “PVQLVESGGGLVQAGGPLRLSCAASGFNITSYVMGWYRPAPGKERELVAAISAGGGSTYYADSVKGRFTISRDNAKNTVYLQMNSLIPDDTAVYYCAADPLYEQIYYAIYHYNDGYDYWGQGTQVTVSS”, the “polyreactivity (PSR sort gate)” value is “high polyreactivity”. As to “PVQLVESGGGLVQAGGSHRLSCAASGSIFYFNAMGWYRQAPGKERELVAVITDRGSTYYSDSVKGRFTISRDNAKNTVYLQMNSLKPEDTAVYYCAAQTPGVYLRQIGGYYYWGQGTQVTVSS”, the “polyreactivity (PSR sort gate)” value is listed as “low polyreactivity”.

Turning to “PVQLVESGGGLVQAGGSLPLSCAASGRTFPFNAMRWYRQAPGKERELVATINYRGGSTYYADSVKGRFTISRDNAKNTVYLQMNSLKPEDTAVYYCAAGKIGRYHYDYWGQGTQVTVSS”, the “polyreactivity (PSR sort gate)” value is on record as “high polyreactivity”. “PVQLVESGGGLVQAGGSLRLSCAACGGIFPGNAMGWYRQAPGKVRELVATISYSGGSTYYADSVKGRLTISRDNAKNTVYLQMNSLKPEATAVYYCAARGYKPTRSRRTEYGYWGQGTQVTVSS”: the “polyreactivity (PSR sort gate)” value was “high polyreactivity”. The entry for “PVQLVESGGGLVQAGGSLRLSCAASGFTFANYAMGWYRQAPGKERELVAAISRGGTSTYYADSVKGRFTISRDNAKNTVYFQMNSLKPEDTEVYFCNAVKVGYSLYDYWGQGTQVTVSS” is “high polyreactivity”; for “PVQLVESGGGLVQAGGSLRLSCAASGITIYYYGMGWYRQPPGKERELVAAITTGVNTNYADSVKGRFTISRDNAKITVYLQMNSLKPEDTAVYYCAAEYRIPYFFTYGYWGQGTQVTVSS” it is “high polyreactivity”. The entry for “PVQLVESGGGLVQAGGSLRLSCAASGRIFSSYTMGWNIQAPGKERELVAAISWRGGSTYYADSVKGRFTISRDNAKNTVYLLMNSLKPEDTAVYYCAADSRSHPGDYWGHGTQVTVSS” is “low polyreactivity”; for “PVQLVESGGGLVQAGGSLRLSCAASGSTFAYNAMGWYRQAPGKERELVAAISWSGGTTYYADSVKGRFTISPDNAKNPVYLQMNSLKPEDTAVYYCAADVYLNRRQRMYYWGQGTQVTVSS” it is “high polyreactivity”; for “PVQLVESGGGLVQAGGTLRLSCDATGITFKLNAMGWYRQAPGKERELVAAITSTGGSTYYADSVKGRFTISRDNAKNTVYLQMNSLNPEDTAVYYCAADRYSYIFYYYWSYDYWGQCTQVTVSS” it is “high polyreactivity”. The same measure for “PVQLVESGGGVVQAGGSLRVSCAASGSIFYVYAMGWYRQAGGKEWELVAAINPSGGSTFYADSVKGRFTISRDNAKTTDYLQMNSLTPEHTAVYYCAAERYRYRSTDTMGYWGQGTQVTVSS”: “low polyreactivity”. With “PVQLVESGGVLVQAGGILRLSCAASGFTFYLYGMGWYRRAPGKERELVAAISRSGGSTYYADSVKGRFTISRDNAKNTVYLQMNSLKPEDPAVYACAVDKQGSRRRIISDEMYYWGQGTQVTVSS”, the “polyreactivity (PSR sort gate)” value is “high polyreactivity”. For the sequence “PVQLVESGGVLVQAGGSLRLSCAASGFTFWLYAMGWYRQAPGNEREFVAAISPSGGSTYADSVKGRFTLSRDNAKNTVYLPMNRLKPEDTAVYYCNDGYLLYYDYHLFYWGQGTQLTVSS”, the “polyreactivity (PSR sort gate)” value is given as “low polyreactivity”. Turning to “PVQLVETGGGLVQAGGSLRLSCAASGRTFYRYAMGWYRQAPGKERELVAAITRRVDSTSYADSVKGRFTISRDNAKNTVYLQMNSLKPEDTAVYYCATLVQGSVYGVYGGGYWGQGTQVTVSS”, the “polyreactivity (PSR sort gate)” value is reported as “low polyreactivity”. On to “QAQLVESGGGLVQAGGSLRLSSAASGFIFWGNAMGWYRQAPGKERELVAGIRSLGGTTSYADSVKGRFTISRDNAKNTVYLQMNSLKPEDTAVYYCAAGYGAEFDYWGQGTQVTVSS”, for which the “polyreactivity (PSR sort gate)” value was “low polyreactivity”. The entry for “QDHLVESGEGLVQAGGSLRLSCAASGFVFAYYTMGWYRTAPGKERELVAAISRGGGRTYYADSVKGRFTISRDNAKNTVYLQMNSLKPEDTAVYYCAARNGPSIKFAVTGMDYWGQGTQVTVSS” is “high polyreactivity”; for “QDHLVESGGGLVQAGGSLRLSCAASGSPFPSYAMGWYRQAPGKERELVAAINSGGGTTYADSVQGRFTISRDKAKNTVYLQMNSLKPEDTAVYYCARGPLSWHSYVEAEYGYWGQGTQVTVSW” it is “low polyreactivity”; for “QDHLVESVGGLVQAGRSLRLTCAASGGTFYYKTMGWYRQAPGKESQLVAAITSGTSTNYADSVKGRFTISRDNAKNTVYLQMNSLKPEDTAVYYCAADPDADDPRRGYDYWGQGTQVTVSS” it is “low polyreactivity”. Turning to “QDKLVESAGGLVQAGGSLRLSCADSGSIFPFNAMALNRQATGKVREMVASITSGGTTYYADSLKGRFTISRDNAKNTVYLQMNSLKPEDTAVYYFAGDWVWRVLNSYGVRYDYWGQGTQVTVSS”, the “polyreactivity (PSR sort gate)” value is reported as “low polyreactivity”.

“QDKLVESGGGLVQAGASLRLTCAASGLIIYRNAMGWYIQAPGKERELVATISRRGGRTYYADSVKGRFTISRDNAKNNVYLQMNSLKPEDTAVYYCIADDYRSRGGYDSWGQGTQVTVSS”: the “polyreactivity (PSR sort gate)” value was “high polyreactivity”.

Turning to “QDKLVESGGGLVQAGGSLRLSCAASGSILGGYAMGWNRPAPGKAREFVAAISRRGASTFYADSVKGRFTISRDNAKNTVYLQMNCLKPEDTAVYYCNARAYGRIDGHSATFGYWGQGTQVTVSS”, the “polyreactivity (PSR sort gate)” value is on record as “high polyreactivity”. Take “QDKLVESGGGLVQAGGSLRLSCAPSGSIFYGYAMGWYRQAPGKESELVAAMSSTGGTTYYADSVKGRFTISRDNAKNTVYLQMNSQKPEDTAVYYCAKRGRTWRYPFDYWGQGTQVTVSS”: the “polyreactivity (PSR sort gate)” value is given as “high polyreactivity”. The same measure for “QDQHVESGGGLVQAGGSLRLSCAASGFTFPLKAMGWSRQAPGKERELVAVINYSDGSTYYADSVKGRFSISRDNAKNTVYLQMNSLTPEDTAVYYCAARYYTTYYWGQGTQVTVSS”: “high polyreactivity”; for “QDQHVESGGGLVQAGGSLRLSCAASGIIFWWYDMGWFRQAPGKERELVAAISTGSRTNYADSVKGRFTISRDNAKNTVYLQMNSLKPEDTAVYYCAGEWVGFSGYYGSGYEMDYWGQGTQVTVSS”: “low polyreactivity”; for “QDQHVESGGGLVQAGGSLRLSCAASGIIFYRYAMGWYRQAPGKERELVAAIRRSGGSTFYADSVKGRFTISRDNAKNTVYLQMNCLKPVDTAVYYCAAVYTGDPYGYWGQGTQVTVSS”: “high polyreactivity”. The entry for “QDQHVESGGGLVQAGGSLRLSCAASGITFNKYAMGWYRQAPGKERELVAAISFSGGSTYYADSVKGRFTISRDNAKNTVYLQMNSLKPEVTAVYYCAAVWGYVIWVDTAVYREYDYWGQGTQVTVSS” is “high polyreactivity”; for “QDQHVESGGGLVQAGGSLRLSCAASGSNFVINAMGWYRQAPGKEREWVAAITSSGGSTYYADSVKGRFTISRDNAKNTVYLQMNSLKPEDTAVYYCAAYVRTAFGRMNYWGQGTLVTVSS” it is “high polyreactivity”. The same measure for “QDQHVESGGGLVQAGGSLRLSCAASGSTFKIYAMGWYRQPHGKESELVARITGRGGSTYYADSVKGRFTISRDNAKNTVYLQMNSLKPEDTAVYYCAARVYTYYDDLHKRYYWGQGTQVTVSS”: “high polyreactivity”.

Turning to “QDQHVESGGGLVQAGGSLRLSCAASGSTFPYYAMGWYRQAPGKERELVAAITSSGGSTYYADSVKGRFTISRVNAKNTVYLQMNSLKPEDTAVYYCANGYGPYRQMNYWGQGTQVTVSS”, the “polyreactivity (PSR sort gate)” value is “low polyreactivity”.
